B1: IMPA1 (parent)
chain: FIGEESVAAGEKSILTDNPTWIID
B2: RHOBTB3 (parent)
chain: KVVEAHKIVLCAVSHVFMLLFNVK

Variants of: B1
Experiment: protein stability index of a GFP-peptide fusion (GPS, HEK-293T) (PSI 1-6); higher = more stable
Settings: c terminus: a fixed tail appended
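Further: lentivirally expressed fusions sorted by FACS into six bins by GFP to DsRed ratio, PSI derived from sequencing read proportions per bin multiplied by bin number.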

Variant	protein stability index
F1R	4.38
F1N	4.45
F1D	5.07
F1A	4.65
F1L	4.34
F1Y	2.54
F1S	4.96
F1I	3.98
F1W	3.74
F1M	4.6
F1V	4.52
F1K	4.61
F1P	4.56
F1C	4.46
F1Q	4.87
F1G	4.86
F1E	4.81
F1H	4.56
F1T	4.76
I2A	2.59
I2Q	3.89
I2H	2.59

Variant	protein stability index
I2M	3.7
I2R	4.28
I2C	2.27
I2N	4.25
I2G	4.24
I2V	1.1
I2S	3.65
I2E	4.82
I2D	4.79
I2W	2.74
I2T	2.83
I2K	4.42
I2P	3.05
I2F	3.65
I2L	2.99
I2Y	3.4
E5C	2.7
E5F	3.35
E5G	2.79
E5D	1.89
E5K	1.88
E5I	3.46

Variant	protein stability index
E5A	2.05
E5H	1.93
E5L	1.71
E4T	1.85
E4L	1.8
E4R	2.04
E4S	1.8
E4N	1.98
E4W	3.71
E4D	2.01
E4K	1.83
E4C	2.04
E4H	1.76
E4P	1.77
E4A	2.54
E4G	2.14
E4Y	1.9
E4V	1.53
E4M	2.35
E4Q	1.5
E4I	1.84
E4F	3.31

Variant	protein stability index
G3K	2.17
G3H	1.86
G3L	1.6
G3W	1.59
G3P	1.87
G3R	1.64
G3D	3.27
G3N	1.99
G3E	3.55
G3A	2.05
G3Y	1.88
G3F	1.93
G3S	1.89
G3Q	2.52
G3I	1.4
G3V	2.8
G3M	1.78
G3C	1.31
G3T	1.92

Variants of: B2
Experiment: as above
Settings: c terminus: a fixed tail appended

Variant	protein stability index
F21L	2.76
F21H	2.51
V9T	2.47
V9E	2.79
V9A	1.87
V9H	2.71
V9L	3.24
V9I	2.87
V9G	2.12
V2N	2.44
V2E	2.64
V2L	2.32
V2P	3.44
V2Q	2.04
K24P	3.35
K24F	2.39
K24A	3.31
K24I	2.06
V23E	3.25
V23D	2.29
V23C	2.47

Variant	protein stability index
V23K	3.66
V13I	2.66
V13G	2.42
C11R	1.98
C11V	3.24
C11I	4.05
C11M	2.26
C11P	2.8
E4H	2.69
E4F	2.23
E4S	1.9
E4T	2.53
E4Y	2.75
L19Y	2.59
L19T	3.4
L10A	1.75
L10S	3.43
L10G	3.06
F17G	3.57
V3L	2.09
V3M	3.1

Variant	protein stability index
V3T	2.36
K1C	3.06
K1I	2.87
K1D	4.55
H6V	1.77
H6S	1.92
A12I	1.96
S14V	2.49
S14A	2.36
S14L	2.6
S14G	2.17
S14Q	1.94
S14Y	2.55
L20H	3.28
L20Q	2.37
L20V	2.42
L20P	2.49
L20F	2.97
M18T	2.23
M18N	3.02
M18R	1.14

Variant	protein stability index
H15R	2.27
H15P	1.89
H15I	3.89
A5S	3.05
A5T	1.72
A5L	1.76
A5C	2.77
V16G	3.44
V16F	2.99
I8W	3.31
I8C	2.2
I8Q	2.41
I8K	2.59
K7R	2.65
K7S	2.01
N22H	2.8
N22C	2.31
N22D	3.27
N22Y	1.85

Reference: the supplement of paper PMC10567573
